Results: article PMC8673433 (ImmunoHorizons, 2021)

Legend:
[1] = target: full-length human TLR4 encoded by pBIND-TLR4 (human) (UniProt O00206); assay: two-hybrid
[2] = target: full-length human TLR4 encoded by pBIND-TLR4 (human, UniProt O00206 24-839); assay: two-hybrid
full-length human TLR4 encoded by pBIND-TLR4, sequence (O00206 24-839): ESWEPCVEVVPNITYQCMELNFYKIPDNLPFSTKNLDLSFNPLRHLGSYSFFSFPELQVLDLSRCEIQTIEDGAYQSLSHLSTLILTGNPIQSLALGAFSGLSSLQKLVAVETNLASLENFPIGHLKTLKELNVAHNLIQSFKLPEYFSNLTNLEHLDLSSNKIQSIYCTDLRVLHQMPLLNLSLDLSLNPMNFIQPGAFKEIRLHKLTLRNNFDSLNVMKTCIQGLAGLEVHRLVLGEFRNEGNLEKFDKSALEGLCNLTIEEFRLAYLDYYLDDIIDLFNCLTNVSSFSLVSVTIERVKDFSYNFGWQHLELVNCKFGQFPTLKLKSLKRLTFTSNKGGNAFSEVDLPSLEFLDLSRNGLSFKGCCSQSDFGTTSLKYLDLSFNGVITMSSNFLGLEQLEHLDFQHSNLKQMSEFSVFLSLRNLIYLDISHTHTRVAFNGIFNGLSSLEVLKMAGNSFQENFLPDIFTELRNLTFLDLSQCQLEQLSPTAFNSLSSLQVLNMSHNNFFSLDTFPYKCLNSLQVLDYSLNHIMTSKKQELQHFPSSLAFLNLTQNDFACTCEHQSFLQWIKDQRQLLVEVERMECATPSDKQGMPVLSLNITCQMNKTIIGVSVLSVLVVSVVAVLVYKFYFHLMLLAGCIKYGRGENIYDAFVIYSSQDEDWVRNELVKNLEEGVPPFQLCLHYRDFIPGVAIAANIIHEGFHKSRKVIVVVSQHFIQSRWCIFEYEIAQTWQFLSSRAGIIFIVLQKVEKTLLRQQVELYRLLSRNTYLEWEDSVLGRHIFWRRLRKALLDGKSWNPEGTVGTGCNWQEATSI

full-length human TLR4 encoded by pBIND-TLR4 (human), sequence (O00206 24-839): as above

Molecule	percent binding to TLR4 relative to SPA4 peptide (RLU) [1]	percent binding to TLR4 relative to SPA4 peptide (RLU) [2]
SPA4 peptide alanine mutant NYTXXXRG-12–19→AAAXXXAA encoded by pACT (mammalian two-hybrid fusion)	74%	–
GAFRYSDGTPVNYTNWYRGE [SPA4 peptide alanine mutant D-2→A encoded by pACT (mammalian two-hybrid fusion)]	–	81%
